In assay [1] the target is T1, human 4-1BB on CHO-K1 cells (human, UniProt Q07011 24-255). Description: FACS. In general terms: Flow cytometry measures light scatter and fluorescence of single cells or particles in a stream.
The target of assay [2] is human PD-L1 on CHO-K1 cells (human, UniProt Q9NZQ7 19-290). Kind of assay: FACS; MDA-MB-231 cells.
Assay [3] concerns the target T1, human 4-1BB on CHO-K1 cells. Kind of assay: FACS. This is another data set of the same source.
Target sequence in this assay (Q07011 24-255): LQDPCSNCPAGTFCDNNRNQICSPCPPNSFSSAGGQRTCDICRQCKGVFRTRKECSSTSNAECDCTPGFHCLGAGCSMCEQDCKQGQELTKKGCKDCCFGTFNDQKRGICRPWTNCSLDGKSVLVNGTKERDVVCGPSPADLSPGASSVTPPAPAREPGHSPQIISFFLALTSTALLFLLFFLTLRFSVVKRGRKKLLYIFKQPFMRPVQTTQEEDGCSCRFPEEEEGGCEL

Read-outs that look alike come from different tables or passages of the source.

Chain of human PD-L1 on CHO-K1 cells (Q9NZQ7 19-290): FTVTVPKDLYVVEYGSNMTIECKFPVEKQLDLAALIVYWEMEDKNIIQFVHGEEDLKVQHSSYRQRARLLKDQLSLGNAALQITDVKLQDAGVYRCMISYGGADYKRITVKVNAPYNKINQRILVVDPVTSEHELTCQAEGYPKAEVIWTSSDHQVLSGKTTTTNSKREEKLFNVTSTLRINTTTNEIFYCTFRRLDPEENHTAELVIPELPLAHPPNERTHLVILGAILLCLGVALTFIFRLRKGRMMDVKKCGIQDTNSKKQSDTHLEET

B1: PR007142 (bispecific antibody)
light: DIQMTQSPSTLSASVGDRVTVTCRASQSIYIWLAWYQQKPGKAPNLLIYKASSLETGVPSRFSGSGSGTEFTLTISSLQPDDFATYYCQQYYGSSRTFGQGTKVEIKRTVAAPSVFIFPPSDEQLKSGTASVVCLLNNFYPREAKVQWKVDNALQSGNSQESVTEQDSKDSTYSLSSTLTLSKADYEKHKVYACEVTHQGLSSPVTKSFNRGEC
heavy: EVQLVESGGGLVQPGGSLRLSCAASGFTFSSYWMSWVRQAPGKGLEWVANIKQEGSEKYYVDSVKGRFTISRDNAKNSLYLQMNSLRAEDTAVYYCARDRAVAGAFDIWGQGTMVTVSSASTKGPSVFPLAPSSKSTSGGTAALGCLVKDYFPEPVTVSWNSGALTSGVHTFPAVLQSSGLYSLSSVVTVPSSSLGTQTYICNVNHKPSNTKVDKKVEPKSCDKTHTCPPCPAPEAAGAPSVFLFPPKPKDTLMISRTPEVTCVVVDVSHEDPEVKFNWYVDGVEVHNAKTKPREEQYNSTYRVVSVLTVLHQDWLNGKEYKCKVSNKALPAPIEKTISKAKGQPREPQVYTLPPSREEMTKNQVSLTCLVKGFYPSDIAVEWESNGQPENNYKTTPPVLDSDGSFFLYSKLTVDKSRWQQGNVFSCSVMHEALHNHYTQKSLSLSPGGGSGGSEVQLVESGGGLVKPGGSLRLSCAASGFTFSDYYMSWIRQAPGKGLEWVSYISNNGSTIYYADSVKGRFTISRDNAKNSLYLQMNSLRAEDTAVYYCARVRPGGSGNYWDWFDPWGQGTMVTVSS
For the molecule B1, the EC50 (commonly the concentration needed to bring the measured effect to its halfway point) in assay [1] stood at 23.8 nM; in assay [2], 0.263 nM.

B2: PR007133 (bispecific antibody)
light: DIQMTQSPSTLSASVGDRVTVTCRASQSIYIWLAWYQQKPGKAPNLLIYKASSLETGVPSRFSGSGSGTEFTLTISSLQPDDFATYYCQQYYGSSRTFGQGTKVEIKRTVAAPSVFIFPPSDEQLKSGTASVVCLLNNFYPREAKVQWKVDNALQSGNSQESVTEQDSKDSTYSLSSTLTLSKADYEKHKVYACEVTHQGLSSPVTKSFNRGEC
heavy: EVQLVESGGGLVQPGGSLRLSCAASGFTFSSYWMSWVRQAPGKGLEWVANIKQEGSEKYYVDSVKGRFTISRDNAKNSLYLQMNSLRAEDTAVYYCARDRAVAGAFDIWGQGTMVTVSSASTKGPSVFPLAPSSKSTSGGTAALGCLVKDYFPEPVTVSWNSGALTSGVHTFPAVLQSSGLYSLSSVVTVPSSSLGTQTYICNVNHKPSNTKVDKKVEPKSCDKTHTCPPCPAPEAAGAPSVFLFPPKPKDTLMISRTPEVTCVVVDVSHEDPEVKFNWYVDGVEVHNAKTKPREEQYNSTYRVVSVLTVLHQDWLNGKEYKCKVSNKALPAPIEKTISKAKGQPREPQVYTLPPSREEMTKNQVSLTCLVKGFYPSDIAVEWESNGQPENNYKTTPPVLDSDGSFFLYSKLTVDKSRWQQGNVFSCSVMHEALHNHYTQKSLSLSPGGGSGGSEVQLEESGGGLVKPGGSLRLSCAASGFTFSDYYMSWFRQAPGKGLEWVSYISSSGSITDYADAVKGRFNISRDNAKNSLYLQMNSLRAEDTAVYYCAREREAVAGTLDFDNWGQGTLVTVSS
Take B2: the figures for the EC50 in assay [3] and in assay [2] were 5.06 nM and 0.216 nM, respectively.

B3: PR007139 (bispecific antibody)
light: DIQMTQSPSTLSASVGDRVTVTCRASQSIYIWLAWYQQKPGKAPNLLIYKASSLETGVPSRFSGSGSGTEFTLTISSLQPDDFATYYCQQYYGSSRTFGQGTKVEIKRTVAAPSVFIFPPSDEQLKSGTASVVCLLNNFYPREAKVQWKVDNALQSGNSQESVTEQDSKDSTYSLSSTLTLSKADYEKHKVYACEVTHQGLSSPVTKSFNRGEC
heavy: EVQLVESGGGLVQPGGSLRLSCAASGFTFSSYWMSWVRQAPGKGLEWVANIKQEGSEKYYVDSVKGRFTISRDNAKNSLYLQMNSLRAEDTAVYYCARDRAVAGAFDIWGQGTMVTVSSASTKGPSVFPLAPSSKSTSGGTAALGCLVKDYFPEPVTVSWNSGALTSGVHTFPAVLQSSGLYSLSSVVTVPSSSLGTQTYICNVNHKPSNTKVDKKVEPKSCDKTHTCPPCPAPEAAGAPSVFLFPPKPKDTLMISRTPEVTCVVVDVSHEDPEVKFNWYVDGVEVHNAKTKPREEQYNSTYRVVSVLTVLHQDWLNGKEYKCKVSNKALPAPIEKTISKAKGQPREPQVYTLPPSREEMTKNQVSLTCLVKGFYPSDIAVEWESNGQPENNYKTTPPVLDSDGSFFLYSKLTVDKSRWQQGNVFSCSVMHEALHNHYTQKSLSLSPGGGSGGSEVQLVESGGGLVKPGGSLRLSCAASGFTFSDYYMSWIRQAPGKGLEWVSYISSSGSTIDYADSVKGRFTISRDNAKNSLYLQMNSLRAEDTAVYYCAREREEVAGTLDYDNWGQGTLVTVSS
With B3, the EC50 in assay [1] turned out to be 6.84 nM; in assay [2], 0.257 nM.

B4: PR007135 (bispecific antibody)
light: DIQMTQSPSTLSASVGDRVTVTCRASQSIYIWLAWYQQKPGKAPNLLIYKASSLETGVPSRFSGSGSGTEFTLTISSLQPDDFATYYCQQYYGSSRTFGQGTKVEIKRTVAAPSVFIFPPSDEQLKSGTASVVCLLNNFYPREAKVQWKVDNALQSGNSQESVTEQDSKDSTYSLSSTLTLSKADYEKHKVYACEVTHQGLSSPVTKSFNRGEC
heavy: EVQLVESGGGLVQPGGSLRLSCAASGFTFSSYWMSWVRQAPGKGLEWVANIKQEGSEKYYVDSVKGRFTISRDNAKNSLYLQMNSLRAEDTAVYYCARDRAVAGAFDIWGQGTMVTVSSASTKGPSVFPLAPSSKSTSGGTAALGCLVKDYFPEPVTVSWNSGALTSGVHTFPAVLQSSGLYSLSSVVTVPSSSLGTQTYICNVNHKPSNTKVDKKVEPKSCDKTHTCPPCPAPEAAGAPSVFLFPPKPKDTLMISRTPEVTCVVVDVSHEDPEVKFNWYVDGVEVHNAKTKPREEQYNSTYRVVSVLTVLHQDWLNGKEYKCKVSNKALPAPIEKTISKAKGQPREPQVYTLPPSREEMTKNQVSLTCLVKGFYPSDIAVEWESNGQPENNYKTTPPVLDSDGSFFLYSKLTVDKSRWQQGNVFSCSVMHEALHNHYTQKSLSLSPGGGSGGSEVQLVESGGGLVKPGGSLRLSCAASGFTFSDYYMSWFRQAPGKGLEWVSYISGSGSIIDYADSVKGRFTISRDNAKNSLYLQMNSLRAEDTAVYYCSREREAVAGTLDFDYWGQGTLVTVSS
Regarding B4, the EC50 in assay [3] stood at 12.9 nM; in assay [2], 0.299 nM.

B5: PR007130 (bispecific antibody)
light: DIQMTQSPSTLSASVGDRVTVTCRASQSIYIWLAWYQQKPGKAPNLLIYKASSLETGVPSRFSGSGSGTEFTLTISSLQPDDFATYYCQQYYGSSRTFGQGTKVEIKRTVAAPSVFIFPPSDEQLKSGTASVVCLLNNFYPREAKVQWKVDNALQSGNSQESVTEQDSKDSTYSLSSTLTLSKADYEKHKVYACEVTHQGLSSPVTKSFNRGEC
heavy: EVQLVESGGGLVQPGGSLRLSCAASGFTFSSYWMSWVRQAPGKGLEWVANIKQEGSEKYYVDSVKGRFTISRDNAKNSLYLQMNSLRAEDTAVYYCARDRAVAGAFDIWGQGTMVTVSSASTKGPSVFPLAPSSKSTSGGTAALGCLVKDYFPEPVTVSWNSGALTSGVHTFPAVLQSSGLYSLSSVVTVPSSSLGTQTYICNVNHKPSNTKVDKKVEPKSCDKTHTCPPCPAPEAAGAPSVFLFPPKPKDTLMISRTPEVTCVVVDVSHEDPEVKFNWYVDGVEVHNAKTKPREEQYNSTYRVVSVLTVLHQDWLNGKEYKCKVSNKALPAPIEKTISKAKGQPREPQVYTLPPSREEMTKNQVSLTCLVKGFYPSDIAVEWESNGQPENNYKTTPPVLDSDGSFFLYSKLTVDKSRWQQGNVFSCSVMHEALHNHYTQKSLSLSPGGGSGGSEVQLLESGGGLVQPGGSLRLSCAASGFTFSNYAMSWFRQPPETGLKWVSSIDASGGDTYYADSVKGRFTISRDNSKNTLYLQMNSLRAEDTAVYYCAKEGSHGTDDSHYDVDVWGQGTTVTVSS
Regarding B5, the EC50 came to 2.06 nM in assay [3] and 0.161 nM in assay [2].

The record behind these values is US20230242658A1 (published 2023).
